Measurements published in patent publication US20040253233A1 (CENTRO DE INMUNOLOGIA MOLECULAR CIM, published 2004).

Target: T1, murine monoclonal antibody P3
T1 construct: Murine IgM with kappa light chain from hybridoma ECACC 94113026, coated on the ELISA plate; FR4 segments are printed short; also called Mab P3; MAb P3
Assay: ELISA, plate coated with Mab P3, purified chimeric 1E10 detected with goat anti-human antibody-alkaline phosphatase, absorbance at 405 nm
Protocol: For recombinant MAb 1 E10, Microtiter plates were coated with Mab P3. After washing with PBST (saline phosphate buffered solution containing 0.05% Tween 20), unspecific binding was blockade with bovine sera albumin (BSA) 1% in PBST, incubated for one hour at 37° C.
The wells were washed and incubated for 1 hour at 37° C. with purified recombinant Mab 1E10. The wells were washed with PBST and a goat anti-human antibody conjugated with alkaline phosphatase was added and incubated at 37° C. for one hour. Finally, the wells were washed with PBST and the substrate buffer containing p-nitrophenylphosphate was added.

T1 sequence (VH, as listed by the source, chain 1 of 2): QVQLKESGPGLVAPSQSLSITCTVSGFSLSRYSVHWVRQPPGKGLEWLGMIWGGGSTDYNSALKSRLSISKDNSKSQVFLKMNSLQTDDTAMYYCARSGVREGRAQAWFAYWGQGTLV
T1 sequence (V domain, as listed by the source, chain 2 of 2): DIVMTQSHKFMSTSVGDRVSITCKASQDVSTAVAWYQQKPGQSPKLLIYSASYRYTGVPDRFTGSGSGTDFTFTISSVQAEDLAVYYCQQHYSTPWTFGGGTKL

binding result: binds
B1: chimeric Mab 1E10 (antibody, V domains shown)
VH: QVQLQQSGAELVKPGASVKLSCKASGYTFTSYDINWVRQRPEQGLEWIGWIFPGDGSTKYNEKFKGKATLTTDKSSSTAYMQLSRLTSEDSAVYFCAREDYYDNSYYFDYWGQGTTLTV
VL: DIQMTQTTSSLSASLGDRVTISCRASQDISNYLNWYQQKPDGTVKLLIYYTSRLHSGVPSRFSGSGSGTDYSLTISNLEQEDIATYFCQQGNTLPWTFGGGTKLESK
notes: FR4 segments are printed short, so the variable domains may lack their last residues; also called Mab 1E10 chimeric; recombinant MAb 1E10
